Data published in patent KR20180095349A (dated 2018).
Values belong to the binder of their own block, whether it stands above or below them.

Target: T1, VEGF 항원 단백질 (VEGF-His) (UniProt P15692-4 27-191, limits assumed)
T1 construct: Expressed from pN293-VEGF in HEK293F cells, purified on Ni-NTA and by gel filtration; also called 혈관 내피세포 성장인자
T1 sequence: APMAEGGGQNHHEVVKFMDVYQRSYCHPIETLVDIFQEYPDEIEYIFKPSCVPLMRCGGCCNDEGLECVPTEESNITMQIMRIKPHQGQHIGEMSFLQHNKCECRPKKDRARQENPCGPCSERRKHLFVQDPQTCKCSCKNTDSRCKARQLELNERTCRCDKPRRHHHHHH
Assay: ELISA on plate-coated VEGF-His (100 ng/well), IgG diluted 1/2 from 50 nM, anti-human Fc-HRP, fit in GraphPad Prism

- Kd: 0.05 nM
B1: 항-VEGF 단일클론 인간항체 7D2 (IgG형) (antibody, V domains shown)
VH: QMQLVQSGGGLVQPGGSLRLSCAASGFTFSSFEMNWVRQAPGKGLEWLSYISNSGSTIYYADSVKGRFTISRDNAKNSLYLQMNSLRAEDTAVYYCARDSRYYGIHGMDVWGQGTTITVSS
VL: DIQMTQSPSSLSASVGDRVTITCRASQTISTYLNWYQQKPGKAPKLLIYAASSLQSGVPSRFSGSGSGTDFTLTISSLQPEDFATYYCQQSSSTPRTFGQGTRLEIK

- Kd: 0.06 nM
B2: 항-VEGF 단일클론 인간항체 3H1 (IgG형) (antibody, V domains shown)
VH: QVQLVESGGGLVKPGGSLRLSCAASGFIFSRYGMNWVRQAPGKGLEWVSSISGSSNYRYYADSVKGRFTISRDNAKNSLYLQMNSLRAEDTAVYYCARDASWGLIQGLDSWGQGTLVTVSS
VL: DIQMTQSPSSLSASVGDRVTITCRASQSISSYLNWYQQEPGKAPKLLIYDASSLQSGVPSRFSGGGSGTDFTLTISSLQPEDFAAYYCQQSYSTPYTFGQGTKVDIK

- Kd: 0.025 nM
B3: 항-VEGF 단일클론 인간항체 4C4 (IgG형) (antibody, V domains shown)
VH: QVQLVQSGAEVKKPGSSVKVSCKASGGTFSSSAFSWVRQAPGHGLEWMGRIIPMFDMTDYAQRFQGRLTIIADESSSTAYMELSSLRSEDTAVYYCARYKSGSYGMDVWGQGTTVTVSS
VL: NFMLTQPASVSGSPGQSITISCTGSSSDVGGYNYVSWYQQHPGKAPQLIIYDVTKRPSGVSNRFSGSKSGNSASLTISGLQAEDEADYYCSSYSSSTFYVFGTGTKVTVL
